T1: IL-18 receptor (IL-18Rαβ) on cells (UniProt Q13478 19-541; O95256 20-599, limits assumed)
T1 sequence (looked up) 1: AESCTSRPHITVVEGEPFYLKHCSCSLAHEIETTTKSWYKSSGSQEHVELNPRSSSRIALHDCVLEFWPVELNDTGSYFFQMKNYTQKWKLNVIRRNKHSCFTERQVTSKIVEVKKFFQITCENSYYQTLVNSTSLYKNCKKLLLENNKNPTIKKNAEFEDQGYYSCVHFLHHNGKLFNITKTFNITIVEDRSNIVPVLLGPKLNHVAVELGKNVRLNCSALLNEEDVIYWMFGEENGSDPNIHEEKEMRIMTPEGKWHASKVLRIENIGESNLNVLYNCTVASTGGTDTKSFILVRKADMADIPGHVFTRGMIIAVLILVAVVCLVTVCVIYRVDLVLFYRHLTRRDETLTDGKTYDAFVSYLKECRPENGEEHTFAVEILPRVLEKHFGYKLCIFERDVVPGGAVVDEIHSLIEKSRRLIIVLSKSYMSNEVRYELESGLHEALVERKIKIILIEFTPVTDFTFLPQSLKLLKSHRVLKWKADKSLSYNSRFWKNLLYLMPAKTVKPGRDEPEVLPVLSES
T1 sequence (looked up) 2: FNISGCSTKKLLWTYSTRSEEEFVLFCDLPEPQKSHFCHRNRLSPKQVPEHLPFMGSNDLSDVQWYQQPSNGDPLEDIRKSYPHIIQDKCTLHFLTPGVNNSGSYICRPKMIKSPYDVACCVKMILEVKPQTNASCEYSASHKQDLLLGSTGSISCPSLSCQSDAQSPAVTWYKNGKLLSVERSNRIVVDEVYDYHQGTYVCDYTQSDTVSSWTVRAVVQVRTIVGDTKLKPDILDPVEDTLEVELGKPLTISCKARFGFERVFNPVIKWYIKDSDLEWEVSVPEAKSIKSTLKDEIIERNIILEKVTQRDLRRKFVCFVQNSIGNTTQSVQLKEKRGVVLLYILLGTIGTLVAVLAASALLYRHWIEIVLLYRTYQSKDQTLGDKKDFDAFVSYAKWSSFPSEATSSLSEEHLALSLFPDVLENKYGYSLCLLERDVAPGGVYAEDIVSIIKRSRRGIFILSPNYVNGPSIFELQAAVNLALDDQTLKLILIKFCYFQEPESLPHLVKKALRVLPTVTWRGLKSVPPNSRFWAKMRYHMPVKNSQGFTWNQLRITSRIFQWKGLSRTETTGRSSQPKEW


Experiments:
Experiment in all cases: cell-based or functional assay
[1] = biological target: T1, IL-18 receptor (IL-18Rαβ) on cells
[2] = biological target: T1, IL-18 receptor (IL-18Rαβ) on cells; remark: listed apart in the source
[3] = biological target: T1, IL-18 receptor (IL-18Rαβ) on cells; remark: listed apart in the source

Hek Blue reporter assay EC50 [1] [nM] | Fold potency loss vs C086 [2] [fold] | HEK-blue EC50 [2] [nM] | IFNγ release NK-92 assay EC50 [3] [nM] | Binder
0.00202 | 48 | 2.02 | – | C191 (ligand) YFGKLKSKLSIIRNLNDQVLFIDQGNRPLFEDMTDSDARDNAPRTIFIISMYADSQPRGMAVAISVKCEKISTLSAENKIISFKEMNPPDNIKDTKSDIIFFQRSVPGHDNKMQFESSSYEGYFLAAEKERDLFKLILKKEDELGDRSIMFTVQNESGGPLGLAGGSNIVPVLLGPKLNHVAVELGKNVRLNCSALLNEEDVIYWMFGEENGSDPNIHEEKEMRIMTPEGKWHASKVLRIENIGESNLNVLYNCTVASTGGTDTKSFILVRKADHHHHHH
4 | – | – | 255 | C314 (ligand) MAAEPVEDNAINFVAMKFIDNTLYFIAEDDENLESDPLGYFGKLKSKLSIIRNLNDQVLFIDQGNRPLFEDMTDSDARDNAPRTIFIISMYADSQPRGMAVAISVKCEKISTLSAENKIISFKEMNPPDNIKDTKSDIIFFQRSVPGHDNKMQFESSSYEGYFLAAEKERDLFKLILKKEDELGDRSIMFTVQNED
3.36 | – | – | 252 | C315 (ligand) MAAEPVEDNSINFVAMKFIDNTLYFIAEDDENLESDPLGYFGKLKSKLSIIRNLNDQVLFIDQGNRPLFEDMTDSDARDNAPRTIFIISMYADSQPRGMAVAISVKCEKISTLSAENKIISFKEMNPPDNIKDTKSDIIFFQRSVPGHDNKMQFESSSYEGYFLAAEKERDLFKLILKKEDELGDRSIMFTVQNED
1.24 | 29400 | 1240 | – | C187 (ligand) MAAEPVEDNCINFVAMKFIDNTLYFIAEDDENLESDPLGLAGYFGKLKSKLSIIRNLNDQVLFIDQGNRPLFEDMTDSDARDNAPRTIFIISMYADSQPRGMAVAISVKCEKISTLSAENKIISFKEMNPPDNIKDTKSDIIFFQRSVPGHDNKMQFESSSYEGYFLAAEKERDLFKLILKKEDELGDRSIMFTVQNED
0.00013 | – | – | – | C173 (ligand) YFGKLKSKLSIIRNLNDQVLFIDQGNRPLFEDMTDSDARDNAPRTIFIISMYADSQPRGMAVAISVKCEKISTLSAENKIISFKEMNPPDNIKDTKSDIIFFQRSVPGHDNKMQFESSSYEGYFLAAEKERDLFKLILKKEDELGDRSIMFTVQNEPLGLAGSNIVPVLLGPKLNHVAVELGKNVRLNCSALLNEEDVIYWMFGEENGSDPNIHEEKEMRIMTPEGKWHASKVLRIENIGESNLNVLYNCTVASTGGTDTKSFILVRKADHHHHHH
0.00109 | 26 | 1.09 | – | C172 (ligand) YFGKLKSKLSIIRNLNDQVLFIDQGNRPLFEDMTDSDARDNAPRTIFIISMYADSQPRGMAVAISVKCEKISTLSAENKIISFKEMNPPDNIKDTKSDIIFFQRSVPGHDNKMQFESSSYEGYFLAAEKERDLFKLILKKEDELGDRSIMFTVQNESGGPGPAGMKGLPGSNIVPVLLGPKLNHVAVELGKNVRLNCSALLNEEDVIYWMFGEENGSDPNIHEEKEMRIMTPEGKWHASKVLRIENIGESNLNVLYNCTVASTGGTDTKSFILVRKADHHHHHH
0.00043 | 10 | 0.43 | – | C189 (ligand) YFGKLKSKLSIIRNLNDQVLFIDQGNRPLFEDMTDSDARDNAPRTIFIISMYADSQPRGMAVAISVKCEKISTLSAENKIISFKEMNPPDNIKDTKSDIIFFQRSVPGHDNKMQFESSSYEGYFLAAEKERDLFKLILKKEDELGDRSIMFTVQNESGGPGPAGMKGLPGSNIVPVLLGPKLNHVAVELGKNVRLDCSALLNEEDVIYWMFGEEDGSDPNIHEEKEMRIMTPEGKWHASKVLRIENIGESNLNVLYDCTVASTGGTDTKSFILVRKADHHHHHH
